US20210388102A1

Target: His peptide-tagged soluble cynoADAM9 (cynoADAM9-His) (cynomolgus monkey)
Assay: SPR (BIACORE), antibody captured, cynoADAM9-His in flow

Row | Kd [nM] | koff [s⁻¹] | kon [M⁻¹ s⁻¹] | Binder
1 | 110 | 0.022 | 200000 | hMAB-A (2.2) (antibody, human IgG1, kappa, V domains shown) VH: EVQLVESGGGLVKPGGSLRLSCAASGFTFSSYWMHWVRQAPGKGLEWVGEIIPIFGHTNYNEKFKSRFTISLDNSKNTLYLQMGSLRAEDTAVYYCARGGYYYYGSRDYFDYWGQGTTVTVSS VL: DIVMTQSPDSLAVSLGERATISCKASQSVDYSGDSYMNWYQQKPGQPPKLLIYAASDLESGIPARFSGSGSGTDFTLTISSLEPEDFATYYCQQSHEDPFTFGQGTKLEIKR
2 | < 0.3 | < 1e-05 | 350000 | hMAB-A (2C.2) (antibody, human IgG1, kappa, V domains shown) VH: EVQLVESGGGLVKPGGSLRLSCAASGFTFSSYWMHWVRQAPGKGLEWVGEIIPIFGHTNYNEKFKSRFTISLDNSKNTLYLQMGSLRAEDTAVYYCARGGYYYYPRFGWLDYWGQGTTVTVSS VL: DIVMTQSPDSLAVSLGERATISCKASQSVDYSGDSYMNWYQQKPGQPPKLLIYAASDLESGIPARFSGSGSGTDFTLTISSLEPEDFATYYCQQSHEDPFTFGQGTKLEIKR
3 | 0.2 | 6.6e-05 | 340000 | hMAB-A (2B.2) (antibody, V domains shown) VH: EVQLVESGGGLVKPGGSLRLSCAASGFTFSSYWMHWVRQAPGKGLEWVGEIIPIFGHTNYNEKFKSRFTISLDNSKNTLYLQMGSLRAEDTAVYYCARGGYYYYIGKGVLDYWGQGTTVTVSS VL: DIVMTQSPDSLAVSLGERATISCKASQSVDYSGDSYMNWYQQKPGQPPKLLIYAASDLESGIPARFSGSGSGTDFTLTISSLEPEDFATYYCQQSHEDPFTFGQGTKLEIK
4 | 0.7 | 0.0003 | 420000 | hMAB-A (2D.2) (antibody, V domains shown) VH: EVQLVESGGGLVKPGGSLRLSCAASGFTFSSYWMHWVRQAPGKGLEWVGEIIPIFGHTNYNEKFKSRFTISLDNSKNTLYLQMGSLRAEDTAVYYCARGGYYYYTGKGVLDYWGQGTTVTVSS VL: DIVMTQSPDSLAVSLGERATISCKASQSVDYSGDSYMNWYQQKPGQPPKLLIYAASDLESGIPARFSGSGSGTDFTLTISSLEPEDFATYYCQQSHEDPFTFGQGTKLEIK
